Assay results: the supplement of paper PMC6755084

B1: minF1; a variant is named by its letters at N, in order (parent)
chain: GAGACCGCAACTGAAAAGTTGTTNNNNAANNNNGGNTNNATTTCTGCACGTAGAAGCAAAAGGC

Variants of: B1
Experiment: fraction ligated after 30 min (ligated reads / total reads); higher = more ligase activity
Conditions: with F1*subA RNA substrate (template-directed ligation), 42 °C
Procedure: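 Chip-synthesised pool of minF1 ligase ribozyme variants (single and double substitutions, single to quadruple deletions, bulge and P2 designed variants) was transcribed with T7 and reacted as a pool with excess substrate F1*subA for 30 min at 42 C in 50 mM EPPS pH 8.5, 25 mM MgCl2. Ligated and unligated RNAs were separated by PAGE, barcoded by RT and deep sequenced; fraction ligated = ligated reads / total reads, relative activity = FL / FL of wild-type minF1 (0.76); sequencing FL correlated with PAGE (R2 = 0.98). Sequences are the DNA template of the ribozyme.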
In the case of TCAGAGGGTGA T23A, the fraction ligated is reported as 0.004. For ACAAGGATGTG, the fraction ligated was 0.00585. In the case of ACAAGGATGTA, the fraction ligated is reported as 0.00108. Variant ACAGAGGATGA has a fraction ligated of 0.00191. ACAAGATGTGA A29G showed a fraction ligated of 0.0031. ACAAGATGTGA A29T was tested, and the fraction ligated was 0.0029. Work on CAGATGGTGTG T23A yielded a fraction ligated of 0.00474. With TCAGAGGAGTT G34T T37G the fraction ligated was 0.000958. Work on ACAATGGTTGA yielded a fraction ligated of 0.00142. ACAGAGGTTGA showed a fraction ligated of 0.00073. TCAGATAGTGA gave a fraction ligated of 0.00299. ACAATGATGTG was tested, and the fraction ligated was 0.00556. Variant ACAATGATGTA has a fraction ligated of 0.00197. For TCAAGGAGTGA T23A A29T, the fraction ligated was 0.00288. In the case of TAGATGGTGTG, the fraction ligated is reported as 0.0042. Work on ACAAGATGTGA yielded a fraction ligated of 0.00207. In the case of TCAAGATGTGA A28T A29G, the fraction ligated is reported as 0.00257. Variant ACAGAGATTGA has a fraction ligated of 0.00246. In the case of TCAATGGAGTT G34T T37G A40G, the fraction ligated is reported as 0.00127. TCAGAGTGTGA T23A showed a fraction ligated of 0.00281. In the case of TCAAGGAGTGA, the fraction ligated is reported as 0.000917. ACAGAGGAGTT G34T T37G A40G showed a fraction ligated of 0.00205. Variant TCAGAGGAGTT T23A G34T T37G A40G has a fraction ligated of 0.000303. With TCAAGGTGTGA T23A A29T the fraction ligated was 0.00393. For ACAGAGGAGTT G34T T37G, the fraction ligated was 0.00192. With TCAAGGATGTA T23A the fraction ligated was 0.000851. Variant TCAATGATTGA has a fraction ligated of 0.00117. TCAGATATGTA T23A was tested, and the fraction ligated was 0.00212. With TCAGAGGAGTT T23A G34T T37G the fraction ligated was 0.000421. In the case of TCAGAGGAGTA, the fraction ligated is reported as 0. TCAGAGGAGTG gave a fraction ligated of 0.00573. TCAAGATGTGA T23A gave a fraction ligated of 0.0017. For TCAATGGAGTA T23A, the fraction ligated was 0.00206. CAGATGGTTGA showed a fraction ligated of 0.000297. CAGATGTGTGA T23A showed a fraction ligated of 0.00226. For TCAGAGATGTG, the fraction ligated was 0.0039. Variant TCAGAGATGTA has a fraction ligated of 0.000871. TCAAGGATGTA T23A A29T gave a fraction ligated of 0.00242. With TCAGAGAGTGA T23A the fraction ligated was 0.0017. With TCAAGGATGTA the fraction ligated was 0.0017. TCAAGGATGTG showed a fraction ligated of 0.00569. CAGATGGTGTG gave a fraction ligated of 0.00377. With TCAAGATGTGA T23A A29G the fraction ligated was 0.00178. Variant TCAAGATGTGA T23A A29T has a fraction ligated of 0.00239. In the case of ACAAGGTGTGA, the fraction ligated is reported as 0.00367. With TCAATGGAGTA G34T the fraction ligated was 0.0216. Variant TCAAGGATTGA T23A A29T has a fraction ligated of 0.00443. TCAGATATGTG showed a fraction ligated of 0.00722. In the case of TCAGATATGTA, the fraction ligated is reported as 0.00271. ACAGAGGAGTG G34T showed a fraction ligated of 0.00588. For ACAGAGGTGTA, the fraction ligated was 0.00348. ACAGAGGTGTG showed a fraction ligated of 0.00409. With TCAAGGATGTG T23A the fraction ligated was 0.00539. TCAGAGGTGTG T23A gave a fraction ligated of 0.00531. TCAGAGGTTGA was tested, and the fraction ligated was 0.00136. ACAATGGATGA showed a fraction ligated of 0.00232. Work on ACAGATAGTGA yielded a fraction ligated of 0.00391. With ACAATGGTGTG the fraction ligated was 0.00545. ACAATGGTGTA was tested, and the fraction ligated was 0.00264. For ACAGAGGGTGA, the fraction ligated was 0.00282. Work on TCAGAATGTGA T23A yielded a fraction ligated of 0.00396. For TCAGAGTGTGA, the fraction ligated was 0.00219. TCAGAGGTGTA was tested, and the fraction ligated was 0.0016. Work on TCAGAGGTGTG yielded a fraction ligated of 0.00329. TCAATGTGTGA gave a fraction ligated of 0.00236. TCAATGGAGTT G34T T37G was tested, and the fraction ligated was 0.00235. Work on ACAGAGTGTGA yielded a fraction ligated of 0.00284. TCAGAGATTGA T23A showed a fraction ligated of 0.00203. In the case of ACAATGGAGTA G34T, the fraction ligated is reported as 0.0117. Variant AAGATGGTTGA has a fraction ligated of 0.00185. For TCAGAGGAGTA G34T, the fraction ligated was 0.00236. ACAATGGGTGA gave a fraction ligated of 0.00353. In the case of TCAATGAGTGA, the fraction ligated is reported as 0.0012. Work on TAGATGTGTGA T23A yielded a fraction ligated of 0.00136. TCAGAGGAGTG T23A G34T was tested, and the fraction ligated was 0.00498. With TCAATGGTGTG T23A the fraction ligated was 0.00466. TCAGAGGAGTT G34T T37G A40G gave a fraction ligated of 0.000453. In the case of TCAGAGGATGA, the fraction ligated is reported as 0.00215. With ACAAGGATTGA A29T the fraction ligated was 0.00464. TCAATGATTGA T23A was tested, and the fraction ligated was 0.00254. CAGATGGTTGA T23A showed a fraction ligated of 0.00385. In the case of TCAGAGGAGTG G34T, the fraction ligated is reported as 0.00594. ACAAGGTGTGA A29T showed a fraction ligated of 0.00256. Variant TCAATGATGTG T23A has a fraction ligated of 0.00503.
